US20250163168

Assay: AC-SINS self-interaction assay; the antibody against itself (N = 2)

Substance	AC-SINS (wavelength of maximum absorbance relative to blank, nm) [nm]
negative control (polyreactivity assays)	0
positive control (polyreactivity assays)	23.5
